The text below walks through data of paper PMC7734621.

The test has as its target Minerva virus protease (MVpro), NS6 3C-like protease of a GII.4 norovirus (Minerva virus (norovirus GII.4, 2006b variant)). The test can be described thus: SEC.

For orientation: stoichiometry N means a count of units in the complex or per binding partner. Turning to “Minerva virus protease (MVpro), NS6 3C-like protease of a GII.4 norovirus (enzyme)”, the stoichiometry N is 2.
